Laboratory results as given in the supplement of paper PMC11246515.
± gives the standard deviation of the averaged measurements.

Test: total protein half-life in vivo (active degradation + dilution); higher = more stable protein
[1] = E. coli NCM3722 delta-clpP delta-lon delta-hslV, growth: N-lim chemostat, doubling time 6 h
[2] = E. coli NCM3722 delta-clpP, growth: N-lim chemostat, doubling time 6 h
[3] = E. coli NCM3722 delta-hslV, growth: N-lim chemostat, doubling time 6 h
[4] = E. coli NCM3722 delta-lon, growth: N-lim chemostat, doubling time 6 h
[5] = E. coli NCM3722 delta-smpB, growth: N-lim chemostat, doubling time 6 h
[6] = wild type E. coli NCM3722, growth: C-lim chemostat, doubling time 3 h
[7] = wild type E. coli NCM3722, growth: C-lim chemostat, doubling time 6 h
[8] = wild type E. coli NCM3722, growth: C-lim chemostat, doubling time 12 h
[9] = wild type E. coli NCM3722, growth: N-lim chemostat, doubling time 6 h
[10] = wild type E. coli NCM3722, growth: N-lim chemostat, doubling time 12 h
[11] = wild type E. coli NCM3722, growth: P-lim chemostat, doubling time 6 h
[12] = wild type E. coli NCM3722, growth: P-lim chemostat, doubling time 12 h

MARKWLNLFAGAALSFAVAGNALADEGKITVFAAASLTNAMQDIATQFKKEKGVDVVSSFASSSTLARQIEAGAPADLFISADQKWMDYAVDKKAIDTATRQTLLGNSLVVVAPKASVQKDFTIDSKTNWTSLLNGGRLAVGDPEHVPAGIYAKEALQKLGAWDTLSPKLAPAEDVRGALALVERNEAPLGIVYGSDAVASKGVKVVATFPEDSHKKVEYPVAVVEGHNNATVKAFYDYLKGPQAAEIFKRYGFTIK
total protein half-life in vivo [1]: 5.7 ± 0.29 h | total protein half-life in vivo [2]: 5.9 ± 0.53 h | total protein half-life in vivo [3]: 6.46 ± 0.2 h | total protein half-life in vivo [4]: 6.16 ± 0.47 h | total protein half-life in vivo [5]: 6.39 ± 0.36 h | total protein half-life in vivo [6]: 2.87 ± 0.23 h | total protein half-life in vivo [7]: 6.01 ± 0.3 h | total protein half-life in vivo [8]: 12.8 ± 0.23 h | total protein half-life in vivo [9]: 5.9 ± 0.19 h | total protein half-life in vivo [10]: 12.7 ± 0.75 h | total protein half-life in vivo [11]: 6.64 ± 0.41 h | total protein half-life in vivo [12]: 13.7 ± 0.95 h

MARRILVVEDEAPIREMVCFVLEQNGFQPVEAEDYDSAVNQLNEPWPDLILLDWMLPGGSGIQFIKHLKRESMTRDIPVVMLTARGEEEDRVRGLETGADDYITKPFSPKELVARIKAVMRRISPMAVEEVIEMQGLSLDPTSHRVMAGEEPLEMGPTEFKLLHFFMTHPERVYSREQLLNHVWGTNVYVEDRTVDVHIRRLRKALEPGGHDRMVQTVRGTGYRFSTRF [P0AFJ5]
total protein half-life in vivo [2]: 4.76 ± 0.81 h | total protein half-life in vivo [3]: 3.79 ± 1.1 h | total protein half-life in vivo [4]: 5.36 ± 0.14 h | total protein half-life in vivo [5]: 4.52 ± 0.53 h | total protein half-life in vivo [6]: 2.93 ± 0.28 h | total protein half-life in vivo [7]: 5.33 ± 0.14 h | total protein half-life in vivo [8]: 8.01 ± 1.2 h | total protein half-life in vivo [9]: 4.51 ± 0.3 h | total protein half-life in vivo [10]: 8.09 h | total protein half-life in vivo [11]: 6.11 ± 1 h | total protein half-life in vivo [12]: 11.3 ± 0.5 h

MASQLTDAFARKFYYLRLSITDVCNFRCTYCLPDGYKPSGVTNKGFLTVDEIRRVTRAFARLGTEKVRLTGGEPSLRRDFTDIIAAVRENDAIRQIAVTTNGYRLERDVASWRDAGLTGINVSVDSLDARQFHAITGQDKFNQVMAGIDAAFEAGFEKVKVNTVLMRDVNHHQLDTFLNWIQHRPIQLRFIELMETGEGSELFRKHHISGQVLRDELLRRGWIHQLRQRSDGPAQVFCHPDYAGEIGLIMPYEKDFCATCNRLRVSSIGKLHLCLFGEGGVNLRDLLEDDTQQQALEARISAALREKKQTHFLHQNNTGITQNLSYIGG
total protein half-life in vivo [1]: 3.3 ± 0.76 h | total protein half-life in vivo [2]: 1.83 ± 0.45 h | total protein half-life in vivo [3]: 0.963 ± 0.26 h | total protein half-life in vivo [4]: 1.07 ± 0.34 h | total protein half-life in vivo [5]: 0.9113 ± 0.009 h | total protein half-life in vivo [6]: 0.618 ± 0.051 h | total protein half-life in vivo [7]: 1.11 ± 0.23 h | total protein half-life in vivo [8]: 1.92 ± 0.54 h | total protein half-life in vivo [9]: 1.03 h | total protein half-life in vivo [10]: 1.81 ± 0.17 h | total protein half-life in vivo [11]: > 8 h | total protein half-life in vivo [12]: 2.39 ± 0.45 h

MASTARSLRYALAILTTSLVTPSVWAHAHLTHQYPAANAQVTAAPQAITLNFSEGVETGFSGAKITGPKNENIKTLPAKRNEQDQKQLIVPLADSLKPGTYTVDWHVVSVDGHKTKGHYTFSVK [P0AA57]
total protein half-life in vivo [1]: 5.53 h | total protein half-life in vivo [3]: > 8 h | total protein half-life in vivo [4]: 5.82 h | total protein half-life in vivo [5]: 4.84 h | total protein half-life in vivo [6]: 3.06 h | total protein half-life in vivo [7]: 5.46 ± 0.25 h | total protein half-life in vivo [8]: 9.96 ± 0.3 h | total protein half-life in vivo [9]: 5.82 ± 0.43 h | total protein half-life in vivo [10]: 9.82 ± 0.3 h | total protein half-life in vivo [11]: 4.82 h | total protein half-life in vivo [12]: 9.37 ± 0.95 h

MASTFTSDTLPADHKAAIRQMKHALRAQLGDVQQIFNQLSDDIATRVAEINALKAQGDAVWPVLSYADIKAGHVTAEQREQIKRRGCAVIKGHFPREQALGWDQSMLDYLDRNRFDEVYKGPGDNFFGTLSASRPEIYPIYWSQAQMQARQSEEMANAQSFLNRLWTFESDGKQWFNPDVSVIYPDRIRRRPPGTTSKGLGAHTDSGALERWLLPAYQRVFANVFNGNLAQYDPWHAAHRTEVEEYTVDNTTKCSVFRTFQGWTALSDMLPGQGLLHVVPIPEAMAYVLLRPLLDDVPEDELCGVAPGRVLPVSEQWHPLLIEALTSIPKLEAGDSVWWHCDVIHSVAPVENQQGWGNVMYIPAAPMCEKNLAYAHKVKAALEKGASPGDFPREDYETNWEGRFTLADLNIHGKRALGMDV
total protein half-life in vivo [1]: 3.33 ± 0.48 h | total protein half-life in vivo [2]: 2.54 ± 0.23 h | total protein half-life in vivo [3]: 2.4687 ± 0.002 h | total protein half-life in vivo [4]: 2.95 ± 0.21 h | total protein half-life in vivo [5]: 2.62 ± 0.082 h | total protein half-life in vivo [6]: 2.7 ± 0.11 h | total protein half-life in vivo [7]: 4.34 ± 1 h | total protein half-life in vivo [8]: 3.99 ± 0.74 h | total protein half-life in vivo [9]: 2.526 ± 0.014 h | total protein half-life in vivo [10]: 3.68 ± 0.21 h | total protein half-life in vivo [11]: 4.563 ± 0.02 h | total protein half-life in vivo [12]: 7.6 ± 0.48 h

MATAKKITIHDVALAAGVSVSTVSLVLSGKGRISTATGERVNAAIEELGFVRNRQASALRGGQSGVIGLIVRDLSAPFYAELTAGLTEALEAQGRMVFLLHGGKDGEQLAQRFSLLLNQGVDGVVIAGAAGSSDDLRRMAEEKAIPVIFASRASYLDDVDTVRPDNMQAAQLLTEHLIRNGHQRIAWLGGQSSSLTRAERVGGYCATLLKFGLPFHSDWVLECTSSQKQAAEAITALLRHNPTISAVVCYNETIAMGAWFGLLKAGRQSGESGVDRYFEQQVSLAAFTDATPTTLDDIPVTWASTPARELGITLADRMMQKITHEETHSRNLIIPARLIAAK
total protein half-life in vivo [1]: 6.29 ± 0.064 h | total protein half-life in vivo [2]: 6.58 ± 1.8 h | total protein half-life in vivo [3]: 4.56 h | total protein half-life in vivo [4]: 5.27 ± 0.39 h | total protein half-life in vivo [5]: 4.45 ± 0.36 h | total protein half-life in vivo [6]: 2.7 ± 0.15 h | total protein half-life in vivo [7]: 5.25 ± 0.078 h | total protein half-life in vivo [8]: 8.757 ± 0.013 h | total protein half-life in vivo [9]: 4.64 ± 0.33 h | total protein half-life in vivo [10]: 8.39 ± 2.1 h | total protein half-life in vivo [11]: 4.36 ± 0.092 h | total protein half-life in vivo [12]: 9.01 ± 0.16 h

MATGTQPDAGQILNSLINSILLIDDNLAIHYANPAAQQLLAQSSRKLFGTPLPELLSYFSLNIELMQESLEAGQGFTDNEVTLVIDGRSHILSVTAQRMPDGMILLEMAPMDNQRRLSQEQLQHAQQVAARDLVRGLAHEIKNPLGGLRGAAQLLSKALPDPSLLEYTKVIIEQADRLRNLVDRLLGPQLPGTRVTESIHKVAERVVTLVSMELPDNVRLIRDYDPSLPELAHDPDQIEQVLLNIVRNALQALGPEGGEIILRTRTAFQLTLHGERYRLAARIDVEDNGPGIPPHLQDTLFYPMVSGREGGTGLGLSIARNLIDQHSGKIEFTSWPGHTEFSVYLPIRK [P0AFB5]
total protein half-life in vivo [1]: 5.25 ± 0.15 h | total protein half-life in vivo [2]: 5.41 ± 0.72 h | total protein half-life in vivo [3]: 5.19 ± 0.57 h | total protein half-life in vivo [4]: 4.938 ± 0.023 h | total protein half-life in vivo [5]: 4.73 ± 0.11 h | total protein half-life in vivo [6]: 3.11 ± 0.38 h | total protein half-life in vivo [7]: 5.27 ± 0.073 h | total protein half-life in vivo [8]: 9.99 ± 1.6 h | total protein half-life in vivo [9]: 4.48 ± 0.38 h | total protein half-life in vivo [10]: 8.26 ± 1 h | total protein half-life in vivo [11]: 7.12 ± 0.5 h | total protein half-life in vivo [12]: 11.2 ± 2.2 h
